Here are results for 4 molecules from patent US20230136228A1 (LAMKAP BIO ALPHA, published 2023).

What all share (test): flow cytometry, transfected PEAK cells, 10 mcg/ml
One assay addresses T1, human CEACAM8 (human, UniProt P31997 35-320).
T1 construct: whole, on cells
T1 sequence (looked up): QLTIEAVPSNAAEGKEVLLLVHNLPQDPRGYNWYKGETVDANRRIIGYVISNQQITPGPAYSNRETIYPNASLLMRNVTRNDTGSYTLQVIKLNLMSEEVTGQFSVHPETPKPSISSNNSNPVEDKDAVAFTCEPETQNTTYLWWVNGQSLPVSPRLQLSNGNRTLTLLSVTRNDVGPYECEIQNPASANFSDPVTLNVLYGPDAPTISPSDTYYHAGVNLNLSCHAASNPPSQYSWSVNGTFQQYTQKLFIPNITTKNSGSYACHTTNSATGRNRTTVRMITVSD
An excerpt: (§1) Vectors encoding the full-length version of human CEACAM 1, 3, 4, 5, 6, 7, 8, 18, 19, 20 and […] are used to express these proteins at the surface of PEAK and/or CHO cells as described in Example 1. Similarly, vectors encoding the full-length version of cyno CEACAM 5 and 6 are also used to express these proteins at the surface of PEAK and/or CHO cells. Non-transfected PEAK and/or CHO cells are used as negative control. Cells are harvested, counted, checked for viability and resuspended at 3×10⁶ cells/ml in FACS buffer (PBS 2% BSA, 0.1% NaN₃). 100 μl of the cell suspension are distributed in V-bottom 96-well plates (3×10⁵ cells/well). The supernatant is removed by centrifugation 3 minutes at 4° C., 1300 rpm and the cells incubated for 15 minutes at 4° C. with increasing concentrations of the antibody according to the invention. The antibodies carrying the anti-CEACAM5 arms to test are diluted in FACS buffer and the concentration range is 30 pM-500 nM. Cells are washed twice with cold FACS buffer and re-incubated for further 15 minutes at 4° C. with a compatible anti-human IgG secondary antibody. Cells are washed twice with cold FACS buffer and resuspended in 300 μl FACS buffer with 1:1500-diluted TOPRO-3 (Invitrogen). Fluorescence is measured using a FACSCalibur™ (BD Biosciences) or a Cytoflex Platform (Beckman Coulter). Dose-response binding curves are fitted using GraphPad Prism8 software. In the same manner, CEACAM1, CEACAM6 and other CEACAMs can be characterized.
(§2) For the bispecific antibodies AB17L3-1/N, AB71L3-1/N, AB72L3-1/N, AB73L3-1/N the MFI measured for binding to CEACAM5 transfected cells was found between 29000 and 41000 (Table 2). In contrast MFI found by using PEAK cells transfected with CEACAM 1,3,4,6,8 were found below 1000 with the only exception of a strong signal for AB72L3-1/N on CEACAM8 transfected cells. When MFI values obtained on transfected cells expressing any given CEACAM are divided by the values obtained on WT PEAK cells, “factors to PEAK WT” can be calculated (Table 3).

The target in a further assay is T2, human CEACAM1 (human, UniProt P13688 35-526).
T2 construct: whole, on cells
T2 sequence (looked up): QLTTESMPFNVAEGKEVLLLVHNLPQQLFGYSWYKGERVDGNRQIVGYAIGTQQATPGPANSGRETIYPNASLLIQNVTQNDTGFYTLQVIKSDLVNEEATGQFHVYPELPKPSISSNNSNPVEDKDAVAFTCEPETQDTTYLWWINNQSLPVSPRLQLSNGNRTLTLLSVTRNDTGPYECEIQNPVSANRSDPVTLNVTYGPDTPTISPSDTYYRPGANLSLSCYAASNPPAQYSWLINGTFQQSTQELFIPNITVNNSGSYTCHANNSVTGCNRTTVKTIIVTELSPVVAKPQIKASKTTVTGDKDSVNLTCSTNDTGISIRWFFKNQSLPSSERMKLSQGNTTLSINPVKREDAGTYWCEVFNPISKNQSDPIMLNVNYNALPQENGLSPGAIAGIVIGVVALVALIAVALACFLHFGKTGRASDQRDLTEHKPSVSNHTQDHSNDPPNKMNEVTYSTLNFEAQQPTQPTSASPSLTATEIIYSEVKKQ
Description: as §1, §2

The target of another assay is T3, human CEACAM4 (human, UniProt O75871 36-244).
T3 construct: whole, on cells
T3 sequence (looked up): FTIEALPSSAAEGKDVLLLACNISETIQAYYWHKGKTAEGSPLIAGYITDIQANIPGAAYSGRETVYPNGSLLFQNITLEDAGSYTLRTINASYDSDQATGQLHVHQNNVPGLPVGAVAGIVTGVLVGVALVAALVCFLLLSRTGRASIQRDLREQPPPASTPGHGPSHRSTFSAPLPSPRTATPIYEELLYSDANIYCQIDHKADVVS
Description: as §1, §2

The target of another assay is T4, human CEACAM6 (human, UniProt P40199 35-320).
T4 construct: whole, on cells; also called CD66c
T4 sequence (looked up): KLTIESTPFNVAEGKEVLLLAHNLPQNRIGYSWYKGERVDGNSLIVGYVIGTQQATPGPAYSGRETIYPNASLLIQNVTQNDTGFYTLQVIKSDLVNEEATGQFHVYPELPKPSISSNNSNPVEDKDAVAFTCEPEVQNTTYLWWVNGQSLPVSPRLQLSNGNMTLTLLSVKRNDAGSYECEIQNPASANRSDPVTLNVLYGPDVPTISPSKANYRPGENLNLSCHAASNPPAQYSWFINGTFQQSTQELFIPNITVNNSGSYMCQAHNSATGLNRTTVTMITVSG
Description: as §1, §2

B1: AB17L3-1/N (bispecific antibody, human IgG1, kappa, lambda, L234A L235A)
heavy: EVQLVESGGGLVQPGGSLKLSCAASGFTFNTYAMNWVRQAPGKGLEWVGRIRSKYNNYATYYADSVKDRFTISRDDSKNTAYLQMNSLKTEDTAVYYCVRHGNFGNSYVSWFAYWGQGTLVTVSSASTKGPSVFPLAPSSKSTSGGTAALGCLVKDYFPEPVTVSWNSGALTSGVHTFPAVLQSSGLYSLSSVVTVPSSSLGTQTYICNVNHKPSNTKVDKRVEPKSCDKTHTCPPCPAPEAAGGPSVFLFPPKPKDTLMISRTPEVTCVVVDVSHEDPEVKFNWYVDGVEVHNAKTKPREEQYNSTYRVVSVLTVLHQDWLNGKEYKCKVSNKALAAPIEKTISKAKGQPREPQVYTLPPSREEMTKNQVSLTCLVKGFYPSDIAVEWESNGQPENNYKTTPPVLDSDGSFFLYSKLTVDKSRWQQGNVFSCSVMHEALHNHYTQKSLSLSPG
light 1: EIVLTQSPATLSLSPGERATLSCRASQSVNSNLNWYQQKPGQAPRLLIYHGSNRATGIPARFSGSGSGTDFTLTISSLEPEDFAVYYCQQFDYFKEHNTFGQGTKVEIKRTVAAPSVFIFPPSDEQLKSGTASVVCLLNNFYPREAKVQWKVDNALQSGNSQESVTEQDSKDSTYSLSSTLTLSKADYEKHKVYACEVTHQGLSSPVTKSFNRGEC
light 2: QTVVTQEPSLTVSPGGTVTLTCRSSTGAVTTSNYANWFQQKPGQAPRGLIGGTNKRAPGTPARFSGSLLGGKAALTLSGAQPEDEAEYYCALWYKQRWVFGGGTKLTVLGQPKAAPSVTLFPPSSEELQANKATLVCLISDFYPGAVTVAWKADSSPVKAGVETTTPSKQSNNKYAASSYLSLTPEQWKSHRSYSCQVTHEGSTVEKTVAPTECS
notes: Kappa-lambda body, lead optimization wave 1
For the molecule B1, the MFI is 411 MFI with human CEACAM8, 652 MFI with human CEACAM1, 431 MFI in the assay with human CEACAM4 and 541 MFI with human CEACAM6.

B2: AB1L3-1/N (bispecific antibody, human IgG1, kappa, lambda, L234A L235A)
heavy: EVQLVESGGGLVQPGGSLKLSCAASGFTFNTYAMNWVRQAPGKGLEWVGRIRSKYNNYATYYADSVKDRFTISRDDSKNTAYLQMNSLKTEDTAVYYCVRHGNFGNSYVSWFAYWGQGTLVTVSSASTKGPSVFPLAPSSKSTSGGTAALGCLVKDYFPEPVTVSWNSGALTSGVHTFPAVLQSSGLYSLSSVVTVPSSSLGTQTYICNVNHKPSNTKVDKRVEPKSCDKTHTCPPCPAPEAAGGPSVFLFPPKPKDTLMISRTPEVTCVVVDVSHEDPEVKFNWYVDGVEVHNAKTKPREEQYNSTYRVVSVLTVLHQDWLNGKEYKCKVSNKALAAPIEKTISKAKGQPREPQVYTLPPSREEMTKNQVSLTCLVKGFYPSDIAVEWESNGQPENNYKTTPPVLDSDGSFFLYSKLTVDKSRWQQGNVFSCSVMHEALHNHYTQKSLSLSPG
light 1: EIVLTQSPATLSLSPGERATLSCRASQSVNSNLNWYQQKPGQAPRLLIYHGSNRATGIPARFSGSGSGTDFTLTISSLEPEDFAVYYCQQFDLRHEHNTFGQGTKVEIKRTVAAPSVFIFPPSDEQLKSGTASVVCLLNNFYPREAKVQWKVDNALQSGNSQESVTEQDSKDSTYSLSSTLTLSKADYEKHKVYACEVTHQGLSSPVTKSFNRGEC
light 2: QTVVTQEPSLTVSPGGTVTLTCRSSTGAVTTSNYANWFQQKPGQAPRGLIGGTNKRAPGTPARFSGSLLGGKAALTLSGAQPEDEAEYYCALWYKQRWVFGGGTKLTVLGQPKAAPSVTLFPPSSEELQANKATLVCLISDFYPGAVTVAWKADSSPVKAGVETTTPSKQSNNKYAASSYLSLTPEQWKSHRSYSCQVTHEGSTVEKTVAPTECS
notes: Kappa-lambda body: common heavy chain (hIgG1 L234A+L235A+P329A), kappa CEA light chain AB1, lambda CD3 light chain L3-1 (1A4); also called parental KL bispecific antibody
Regarding B2, the MFI in the assay with human CEACAM8 was 343 MFI; with human CEACAM1 it was 441 MFI; with human CEACAM4, 330 MFI; with human CEACAM6, 373 MFI.

B3: AB71L3-1/N (bispecific antibody, human IgG1, kappa, lambda, L234A L235A)
heavy: EVQLVESGGGLVQPGGSLKLSCAASGFTFNTYAMNWVRQAPGKGLEWVGRIRSKYNNYATYYADSVKDRFTISRDDSKNTAYLQMNSLKTEDTAVYYCVRHGNFGNSYVSWFAYWGQGTLVTVSSASTKGPSVFPLAPSSKSTSGGTAALGCLVKDYFPEPVTVSWNSGALTSGVHTFPAVLQSSGLYSLSSVVTVPSSSLGTQTYICNVNHKPSNTKVDKRVEPKSCDKTHTCPPCPAPEAAGGPSVFLFPPKPKDTLMISRTPEVTCVVVDVSHEDPEVKFNWYVDGVEVHNAKTKPREEQYNSTYRVVSVLTVLHQDWLNGKEYKCKVSNKALAAPIEKTISKAKGQPREPQVYTLPPSREEMTKNQVSLTCLVKGFYPSDIAVEWESNGQPENNYKTTPPVLDSDGSFFLYSKLTVDKSRWQQGNVFSCSVMHEALHNHYTQKSLSLSPG
light 1: EIVLTQSPATLSLSPGERATLSCRASQSVNSNLNWYQQKPGQAPRLLIYHSSNRPHGIPARFSGSGSGTDFTLTISSLEPEDFAVYYCQQFDYFKEHNTFGQGTKVEIKRTVAAPSVFIFPPSDEQLKSGTASVVCLLNNFYPREAKVQWKVDNALQSGNSQESVTEQDSKDSTYSLSSTLTLSKADYEKHKVYACEVTHQGLSSPVTKSFNRGEC
light 2: QTVVTQEPSLTVSPGGTVTLTCRSSTGAVTTSNYANWFQQKPGQAPRGLIGGTNKRAPGTPARFSGSLLGGKAALTLSGAQPEDEAEYYCALWYKQRWVFGGGTKLTVLGQPKAAPSVTLFPPSSEELQANKATLVCLISDFYPGAVTVAWKADSSPVKAGVETTTPSKQSNNKYAASSYLSLTPEQWKSHRSYSCQVTHEGSTVEKTVAPTECS
notes: Kappa-lambda body, lead optimization wave 2
B3: the MFI with human CEACAM8 came to 391 MFI; with human CEACAM1, 451 MFI; with human CEACAM4 it was 323 MFI; with human CEACAM6, 420 MFI.

B4: AB72L3-1/N (bispecific antibody, human IgG1, kappa, lambda, L234A L235A)
heavy: EVQLVESGGGLVQPGGSLKLSCAASGFTFNTYAMNWVRQAPGKGLEWVGRIRSKYNNYATYYADSVKDRFTISRDDSKNTAYLQMNSLKTEDTAVYYCVRHGNFGNSYVSWFAYWGQGTLVTVSSASTKGPSVFPLAPSSKSTSGGTAALGCLVKDYFPEPVTVSWNSGALTSGVHTFPAVLQSSGLYSLSSVVTVPSSSLGTQTYICNVNHKPSNTKVDKRVEPKSCDKTHTCPPCPAPEAAGGPSVFLFPPKPKDTLMISRTPEVTCVVVDVSHEDPEVKFNWYVDGVEVHNAKTKPREEQYNSTYRVVSVLTVLHQDWLNGKEYKCKVSNKALAAPIEKTISKAKGQPREPQVYTLPPSREEMTKNQVSLTCLVKGFYPSDIAVEWESNGQPENNYKTTPPVLDSDGSFFLYSKLTVDKSRWQQGNVFSCSVMHEALHNHYTQKSLSLSPG
light 1: EIVLTQSPATLSLSPGERATLSCRASQSVNSNLNWYQQKPGQAPRLLIYHSTNRPRGIPARFSGSGSGTDFTLTISSLEPEDFAVYYCQQFDYFKEYNTFGQGTKVEIKRTVAAPSVFIFPPSDEQLKSGTASVVCLLNNFYPREAKVQWKVDNALQSGNSQESVTEQDSKDSTYSLSSTLTLSKADYEKHKVYACEVTHQGLSSPVTKSFNRGEC
light 2: QTVVTQEPSLTVSPGGTVTLTCRSSTGAVTTSNYANWFQQKPGQAPRGLIGGTNKRAPGTPARFSGSLLGGKAALTLSGAQPEDEAEYYCALWYKQRWVFGGGTKLTVLGQPKAAPSVTLFPPSSEELQANKATLVCLISDFYPGAVTVAWKADSSPVKAGVETTTPSKQSNNKYAASSYLSLTPEQWKSHRSYSCQVTHEGSTVEKTVAPTECS
notes: as for B3
For the molecule B4, the MFI with human CEACAM8 stood at 6290 MFI; in the assay with human CEACAM1, 652 MFI; with human CEACAM4 it was 402 MFI; in the assay with human CEACAM6 it was 562 MFI.
